In the supplement of paper PMC9170038:

Tested on: MS2 coat protein
Assay: apparent KD of MS2 coat protein; higher = weaker reporter binding
Settings: Eterna round: R107
Summary of the method: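 Normalised binding curves from single clusters were fitted, and the median fit for each design is given as apparent KD. The clusters held designed RNA switches transcribed on-chip from Illumina sequencing clusters. These were titrated with SNAP-549-labelled MS2 coat protein (twofold steps from 0.7 or 1.5 nM to 3 µM, 0.8–1.5 h to 10–20 min per step) in 100 mM Tris-HCl pH 7.5, 80 mM KCl, 4 mM MgCl2, without or with constant ligand.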

[1] = input ligand: theophylline 20 uM
[2] = input ligand: theophylline 2 mM
[3] = input ligand: tryptophan 2.4 mM

Row | Sequence | apparent KD of MS2 coat protein (input ligand: arginine 13.2 mM) | apparent KD of MS2 coat protein (input ligand: none) | apparent KD of MS2 coat protein [1] | apparent KD of MS2 coat protein [2] | apparent KD of MS2 coat protein [3]
1 | UCAUGACAUGGGAAUAAAUAAGAAGGCGAAGGAGCGUGAAGAUUCACAGGUAGGUCGCGCAAAAUACAUGAGGAUCACCCAUGUU [JR_Nu_ExcArginiA_Sub032] | 33 nM | 30.4 nM | 53.2 nM | 43.9 nM | 37.3 nM
2 | UCAUUUGAGUGAGAUGUAAGGUAUCAUGAUACCAGUAGAUAAUUAUACCCUUGGCAGCAUGACAUGAGGAUCACCCAUGUACAUG [Ad] | 9.28 nM |  | 11.1 nM |  | 12.3 nM
3 | UCCACACAUGAGGAUCACCCAUGUUGAGAUACCAGUAAACCAAAAUACCCUUGGCAGCUCCUACGCUCUUACAGCGGGAAUAUCC [theeternabot_sameState_MS2_Theo_A_46] | 14.3 nM |  | 19.5 nM |  | 14.9 nM
4 | UCCCUACCGUCGGCCGCCACUGGGUCAUACAGUUCGUAACUACAUGAGGAUCACCCAUGUGCAGCCAGGACCGGGACGCGCCUUG [theeternabot_sameState_MS2_Trp_B_16] | 30.2 nM |  | 153 nM | 148 nM | 
5 | UCCUGCAGAGCGGCCGCCACUGUGUUGCGUGAGGAUGACCCAACAUGAGGAUCACCCAUGUUGUUUAGGACCGGGCUUGCCUCGA [xcmulliny] | 12 nM |  | 17.2 nM | 15.5 nM | 
6 | UCGGGCAGAGCGGCCGCCACUGUUUGGCAUGCGGAUGACGGAACAUGAGGAUCACCCAUGUUGAUUAGGACCGGGCUUGCGGAGA [eefullin] | 11.6 nM | 18.9 nM | 42.3 nM | 25.1 nM | 37 nM
7 | UCGGGCAGAGCGGCCGCCACUGUUUGGCGUGCGGAUGACGGAACAUGAGGAUCACCCAUGUUGUUUAGGACCGGGCUUGCGGCGU [ipimullin] | 12.1 nM | 12.7 nM | 16.7 nM | 14 nM | 12.1 nM
8 | UCGUAGGUAGGAAGGAGCGCAUACUUCACAUGAGGAUCACCCAUGUCGAGACGUGAGUCAGUGCAGGUAGGUCGCCUAGCUAUGA [Same State - Arginine B (Freestyle 25)] | 18.2 nM | 26 nM | 35.7 nM | 28.3 nM | 18.7 nM
9 | UCGUAGGUAGGAAGGAGCGCAUACUUCACAUGAGGAUCACCCAUGUCGAGACGUGAGUCAGUGCAGGUAGGUCGCCUAGUUAUGA [Same State - Arginine B (Freestyle 24)] | 19.6 nM | 41.1 nM | 36.2 nM | 40.2 nM | 29.2 nM
10 | UCGUCCUCCGCAAGGAGGAGGAGUUGCGAUACCAGCACGGUAACGUGCCCUUGGCAGCGCACAUGAGGAUCACCCAUGUGGUGUU [#1 Exclusion - Theophylline A Attempt #13 (HarryS)] | 59.3 nM |  | 425 nM |  | 188 nM
11 | UCGUGUAUAUCGGAUACCAGUGAAAUCGAUACAUGAGGAUCACCCAUGUGAGUUGAUGUACACCCUUGGCAGCUGUAUAUAUCUA [snbullin] | 15 nM |  | 18.1 nM |  | 15.3 nM
12 | UCGUGUAUAUCGGAUACCAGUGAGAACGAUACAUGAGGAUCACCCAUGUGAGUUGAUGUACACCCUUGGCAGCUGUAUAUAUCUA [gghullin] | 18.9 nM |  | 27 nM |  | 20 nM
13 | UCUACAUGAGGAUCACCCAUGUGCCAUGAUACCAGACAUGAAAAUGUCCCUUGGCAGCGUGGGUAGCGCAUCCGAAAGGAUGCGC [#08 SameState-TheophyllineA] | 1370 nM | 702 nM | 240 nM | 1310 nM | 20.5 nM
14 | UCUCACAUGAGGAUCACCCAUGUGUGCGGUCGAGGACCGGUACGGCCGCCACUCGAAUCCUUCCGCGAGAAGAUUGUACGACGGC [theeternabot_sameState_MS2_Trp_A_38] | 28.3 nM |  | 74.4 nM | 99.9 nM | 
15 | UCUUUCUUUGUAGAUACCAGCAUGUUAAGUUUCUUUUGACAUGAGGAUCACCCAUGUACAUGCCCUUGGCAGCUACAUUUUCUUU [SSThB NP+V+V2 Same Structure] | 15.6 nM |  | 16.3 nM |  | 15.4 nM
16 | UGACAUUGCUCAGAUACCAGACGUGAGGAUCACCCACGUGCCAACAAGUACAUAAUAAAUGUCCCUUGGCAGCUGAGCAAUGUCU [TheoBX 17 #MS2Left #Theo2 #AlternativeMS2] | 16.4 nM | 11.2 nM | 15.2 nM | 15.1 nM | 10.9 nM
17 | UGAGUUAGACAAAAGUCUAGCUCUGGUGAAGGAGCGUCCGAAAGGACAGGUAGGUCGCACCACAUGAGCAUCAGCCAUGUUCCUU [ArgAS 23 #OpenEnded #AlternativeMS2] | 17.9 nM | 17.3 nM | 26.9 nM | 17.8 nM | 16.8 nM
18 | UGAUACACGGGAAGGAGCGACAGGGAUAAGUCCGCACGGGCCGCACAUGAGGAUCACCCAUGUCAGGUAGGUCGCCCGUGGCGUG [Erxemarima] | 13 nM | 13.5 nM | 19.6 nM | 16 nM | 12.9 nM
19 | UGAUCCUGCAGGGAUACCAGCGCCGCUAGAUAACUAUGCACAUGAGGAUCACCCAUGUAACGCCCUUGGCAGCCCAACUAAAGGG [Same State Theophylline B GF21] | 28.9 nM | 39.9 nM | 41 nM | 26.7 nM | 35.2 nM
